From patent US20220144911A1 (UAB RESEARCH FOUNDATION, published 2022) come the findings set out here.

One assay concerns the target RhCMVIL10 (rhesus cytomegalovirus (printed as …)).
Assay [1] concerns the target T1, cellular RhIL10 (rhesus macaque, UniProt P51496 19-178).
T1 construct: also called Rhesus IL10
In words: SPR (Biacore T-200), RhIL10R1-FC captured by anti-human FC, IL10 as analyte, 1:1 model. On the technique in general: SPR reads the build-up and loss of mass on a sensor chip optically.
Protocol: (§1) Following the association phase, dissociation was monitored for 720 seconds. The binding parameters were extracted from the sensorgrams by fitting the data to a 1:1 binding model.
(§2) Surface Plasmon Resonance (SPR): SPR data collection and analysis was performed using a Biacore T-200 (GE healthcare). […] Sensorgrams were fit to appropriate models using Biacore T-200 evaluation software version 1.0.

For assay [2], the target named is T1, cellular RhIL10. The assay is described as follows: SPR, ratio of KD values.
Protocol: as §1, §2

T1 sequence (P51496 19-178 limits assumed): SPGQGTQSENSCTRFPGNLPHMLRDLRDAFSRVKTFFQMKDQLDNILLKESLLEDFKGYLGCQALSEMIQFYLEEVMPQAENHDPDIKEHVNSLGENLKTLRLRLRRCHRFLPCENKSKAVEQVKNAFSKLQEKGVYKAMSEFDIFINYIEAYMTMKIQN
RhCMVIL10 (rhesus cytomegalovirus (printed as …)), sequence (P51496 whole entry): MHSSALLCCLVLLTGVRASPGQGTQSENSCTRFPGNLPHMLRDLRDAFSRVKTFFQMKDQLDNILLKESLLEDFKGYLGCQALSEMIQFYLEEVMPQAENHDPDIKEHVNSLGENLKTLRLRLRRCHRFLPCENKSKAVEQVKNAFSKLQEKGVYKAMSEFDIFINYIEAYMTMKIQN

B1: RhIL10R1-FC-SLS (Fc fusion)
chain: AHGTELPSPPSVWFEAEFFHHILHWTPIPNQSESTCYEVALLRYGTGRWNSISNCSQALSYDLTAVTLDLYRSNGYWARVRAVDGSRHSNWTVTNTRFSLDEVTLTVGSVKLEIHNGFILGKIQPPRPKMAPANDTYESIFRHFREYEIAIRKVPGNFTFTHKKVKHENFSLLTSGEVGEFCVQVKPSVTSRTNKGMWSKEECVSLTRQYFTVTNVGSGGGGPSVFLFPPKPKDTLMISRTPEVTCVVVDVSQEDPDVKFNWYVNGAEVHHAQTKPRETQYNSTYRVVSVLTVTHQDWLNGKEYTCKVSNKALPAPIQKTISKDKGQPREPQVYTLPPSREELTKNQVSLTCLVKGFYPSDIVVEWESSGQPENTYKTTPPVLDSDGSYFLYSKLTVDKSRWQQGNVFSCSVMHEALHNHYTQKSLSLSGGCGTPGK
notes: also called RhIL10R1-SLS; Rh10R1-FC
The term Kd denotes the free concentration of one partner at which half of the binding sites on the other are occupied at equilibrium, for simple one-to-one binding. Lower therefore signals higher affinity. What is called koff is a measure of how fast the partners let go of each other. One may read the kon as a measure of how fast the partners come together. Higher therefore signals faster complex formation. With B1, in the assay with RhCMVIL10, the Kd stood at 0.0724 nM, the koff came out at 0.00017 s⁻¹ and the kon was found to be 2.35e+06 M⁻¹ s⁻¹. In addition, in the assay with cellular RhIL10 [1], binding was put at a Kd of 0.136 nM, the koff came to 0.000454 s⁻¹ and the kon amounted to 3.35e+06 M⁻¹ s⁻¹. The “fold greater affinity than 1F11” value with cellular RhIL10 [2] came to 4.8 fold.
